From CN101309933A (MEDIMMUNE LLC, dated 2008)

B1: 抗-EphA2抗体1H3 (antibody, V domains shown)
VH: EVQLLESGGGLVQPGGSLRLSCAASGFTFSMYAMRWVRQAPGKGLEWVSVIGPSGGWTPYADSVKGRFTISRDNSKNTLYLQMNSLRAEDTAVYYCARDRGIYGMDVWGQGTTVTVSS
VL: DIQMTQSPSFLSASVGDRVTITCRASQGISSYLAWYQQKPGKAPKLLIYAASTLQSGVPSRFSGSGSGTEFTLTISSLQPEDFATYYCLELNNYPFTFGLGTKVHIK
B2: 抗-EphA2抗体3F2 (antibody, V domains shown)
VH: EVQLVESGGGVVRPGGSLRLSCAASGFTVSDYSMNWVRQAPGKGLEWIGFIRNKANAYTTEYSASVKGRFTISRDDSKNTLYLQMNSLKTEDTAVYYCTTYPRYHAMDSWGQGTMVTVSS
VL: AIQLTQSPSSLSASVGDRVTITCRASQSISNNLHWYLQKPGQSPQLLIYYGFQSISGVPSRFSGSGSGTDFTLTISSLQPEDFATYYCQQANSWPLTFGGGTKLEIK

What was measured:
[1] = target: T1, 小鼠EphA2 (expressed on cells) (mouse, UniProt Q03145 26-977); test: flow cytometry on cell lines, 1 μg antibody, PE goat anti-human IgG
T1 construct: whole, on cells; also called mouse EphA2; EphA2 on CT26, 4T1

[2] = target: T2, 人EphA2 (expressed on cells) (human, UniProt P29317 24-976); test: as above
T2 construct: whole, on cells; also called human EphA2; EphA2 on PC3, HUVEC and other human cell lines
T2 sequence (P29317 24-976): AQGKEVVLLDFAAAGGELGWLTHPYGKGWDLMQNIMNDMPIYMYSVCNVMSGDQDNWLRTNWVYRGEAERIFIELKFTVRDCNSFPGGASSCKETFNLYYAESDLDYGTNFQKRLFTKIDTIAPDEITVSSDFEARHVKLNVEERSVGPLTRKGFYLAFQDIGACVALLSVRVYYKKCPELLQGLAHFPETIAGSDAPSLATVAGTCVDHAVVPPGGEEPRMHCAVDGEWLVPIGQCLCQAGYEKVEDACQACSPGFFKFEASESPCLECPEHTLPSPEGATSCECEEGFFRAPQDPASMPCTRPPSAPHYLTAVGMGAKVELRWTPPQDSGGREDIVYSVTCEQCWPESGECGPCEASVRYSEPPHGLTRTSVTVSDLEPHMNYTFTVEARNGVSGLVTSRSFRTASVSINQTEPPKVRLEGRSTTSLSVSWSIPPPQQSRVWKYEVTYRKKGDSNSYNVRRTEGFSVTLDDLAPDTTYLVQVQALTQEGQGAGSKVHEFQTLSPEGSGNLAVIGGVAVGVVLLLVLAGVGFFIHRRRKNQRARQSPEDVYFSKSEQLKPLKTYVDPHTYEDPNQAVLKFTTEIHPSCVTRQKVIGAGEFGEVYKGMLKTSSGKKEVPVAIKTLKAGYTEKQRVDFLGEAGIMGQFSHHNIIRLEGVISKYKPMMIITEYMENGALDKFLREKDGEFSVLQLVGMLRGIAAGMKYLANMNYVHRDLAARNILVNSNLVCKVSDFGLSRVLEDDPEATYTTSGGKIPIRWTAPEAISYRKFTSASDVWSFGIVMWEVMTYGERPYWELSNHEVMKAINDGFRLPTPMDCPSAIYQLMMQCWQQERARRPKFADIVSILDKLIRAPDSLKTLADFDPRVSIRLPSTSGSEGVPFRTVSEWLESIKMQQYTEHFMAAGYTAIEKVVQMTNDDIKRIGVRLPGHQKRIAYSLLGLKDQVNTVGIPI

T1 sequence (Q03145 26-977): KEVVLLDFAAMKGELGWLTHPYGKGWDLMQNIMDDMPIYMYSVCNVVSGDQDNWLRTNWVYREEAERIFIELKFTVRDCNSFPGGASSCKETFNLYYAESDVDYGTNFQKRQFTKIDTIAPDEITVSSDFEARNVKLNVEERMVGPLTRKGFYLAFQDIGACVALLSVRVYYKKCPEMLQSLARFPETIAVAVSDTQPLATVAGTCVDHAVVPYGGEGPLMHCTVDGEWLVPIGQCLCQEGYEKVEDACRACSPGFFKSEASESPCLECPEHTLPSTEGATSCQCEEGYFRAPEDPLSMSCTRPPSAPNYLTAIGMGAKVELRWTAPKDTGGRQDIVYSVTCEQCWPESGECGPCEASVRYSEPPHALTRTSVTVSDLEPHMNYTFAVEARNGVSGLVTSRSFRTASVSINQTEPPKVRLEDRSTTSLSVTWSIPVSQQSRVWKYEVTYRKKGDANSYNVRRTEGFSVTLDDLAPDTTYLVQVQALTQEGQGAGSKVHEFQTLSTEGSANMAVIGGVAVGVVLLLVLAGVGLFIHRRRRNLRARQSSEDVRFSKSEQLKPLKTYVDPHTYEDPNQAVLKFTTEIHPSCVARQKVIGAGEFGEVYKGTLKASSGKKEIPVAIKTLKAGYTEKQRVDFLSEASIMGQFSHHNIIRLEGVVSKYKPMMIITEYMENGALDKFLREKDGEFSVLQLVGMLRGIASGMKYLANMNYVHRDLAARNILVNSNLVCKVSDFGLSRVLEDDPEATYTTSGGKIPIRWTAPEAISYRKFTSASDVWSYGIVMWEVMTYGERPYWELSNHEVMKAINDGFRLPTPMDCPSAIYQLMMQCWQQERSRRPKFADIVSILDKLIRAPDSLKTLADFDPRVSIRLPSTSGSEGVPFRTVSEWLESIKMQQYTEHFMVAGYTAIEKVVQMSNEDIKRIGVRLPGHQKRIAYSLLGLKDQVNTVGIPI

Binder | binding result [1] | binding result [2]
B1 | binds | binds
B2 | binds | binds
